Measured values taken from patent US20130216549A1 (NOVLMMUNE S A, published 2013).

T1: NusA-cynomolgus IP-10 fusion protein (cynomolgus, UniProt Q8MIZ1 22-98 (rhesus entry))
T1 construct: junction and C-terminal AviTag not spelled out
T1 sequence: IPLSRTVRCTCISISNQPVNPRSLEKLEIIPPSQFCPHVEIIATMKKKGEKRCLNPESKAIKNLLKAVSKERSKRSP

T2: NusA-rat IP-10 fusion protein (rat, UniProt P48973 22-98)
T2 chain: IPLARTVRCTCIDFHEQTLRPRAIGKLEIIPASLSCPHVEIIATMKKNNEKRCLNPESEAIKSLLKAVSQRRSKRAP

T3: recombinant human IP-10 (Peprotech) (human, UniProt P02778 22-98)
T3 sequence: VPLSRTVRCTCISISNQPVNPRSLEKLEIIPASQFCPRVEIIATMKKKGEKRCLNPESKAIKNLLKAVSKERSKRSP


Assays:
[1] = target: T1, NusA-cynomolgus IP-10 fusion protein; test: capture ELISA: NI-0801 coated, NusA fusion protein titrated (CK Conc [M]), detected with anti-NusA antibody, fluorescence
Excerpt: (§1) Briefly, IP-10 cloned from cDNA isolated from mouse, rat, rabbit and cynomolgus as well as a panel of human chemokines was expressed and purified as described in Example 1.

[2] = target: T2, NusA-rat IP-10 fusion protein; test: capture ELISA: NI-0801 coated, NusA fusion protein titrated, detected with anti-NusA antibody, fluorescence
Excerpt: as §1

[3] = target: T3, recombinant human IP-10 (Peprotech); test: cell-based or functional assay

EC50 (read off the curve) [1] [nM] | binding result [2] | Calcium flux IC50 (nM); 10 nM hIP-10 [3] [nM] | Chemotaxis IC50 (nM); 1 nM hIP-10 [3] [nM] | Binder
~1 | no binding (tested: about 2.5e-7 M) | – | – | NI-0801 (IgG1-formatted) (antibody, V domains shown) VH: QVQLVESGGGVVQPGRSLRLSCAASGFTFSNSGIHWVRQAPGKGLEWVAVISYDGSNKYYADSVKGRFTISRDNSKNTLYLQMNSLRAEDTAVYYCARLRDNAEYTDYWGQGTLVTVSS VL: NFMLTQPHSVSESPGKTVTISCTGSGGSIASNYVQWYQQRPGSSPTTVIYEDNQRPSGVPDRFSGSIDSSSNSASLTISGLKTEDEADYYCQSYDPLPVWVFGGGTKLTVLG
– | – | 36 | 7 | CC21R3P1_A2 (scFv format) (scFv, V domains shown) VH: QLVESGGGLIQPGGSLRLSCAASGFSVSDTYMNWVRQAPGKGLEWVSSIYSDDSTYYADSVKGRFTISRDNSKNTLFLQINSLRAEDTAVYYCARDKEYVTSTGGAYYYFYYMDVWGQGTLVTVSS VL: not shown
